Changes are numbered by the printed parent chain. Names and notes keep the numbering of the source. “Also recorded” adds a separate entry of the source. Values belong to the molecule of their own block, whether it stands above or below them.
Experiments:
[1] = biological target: T1, human CD58 (Homo sapiens, UniProt P19256); assay: T cell degranulation (CD107a) against CD58-positive cell targets; type: cell-based; conditions: 4-6 hours coculture, K562 or Rat2 cells with mRNA encoding human CD58
T1 construct: expressed in transfected cells; host or cells: K562 (electroporated) or Rat2 (lipofected) cells
T1 sequence (P19256 29-250): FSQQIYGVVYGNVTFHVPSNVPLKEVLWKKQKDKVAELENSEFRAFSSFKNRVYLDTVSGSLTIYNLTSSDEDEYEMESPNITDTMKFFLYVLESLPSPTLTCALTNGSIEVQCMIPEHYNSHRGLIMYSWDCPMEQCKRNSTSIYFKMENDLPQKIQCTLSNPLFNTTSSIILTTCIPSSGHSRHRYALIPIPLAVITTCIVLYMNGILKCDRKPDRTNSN
Procedure: FIG. 23B is a series of bar graphs showing CSR CD2z mutant degranulation data. The panel of CSR CD2z mutants was tested for the capability of mediating degranulation against CD58-positive cell targets. T cell degranulation is a surrogate of T cell killing that can be measured by FACS staining for intracellular CD107a expression following coculture with target cell lines expressing target antigen. Specifically, pan T cells from normal blood donors were stimulated with anti-CD3/anti-CD28 beads in standard T cell culture media, then rested. These cells were then electroporated (BTX ECM 830 electroporator @ 500V for 700 μs) with 9 μg of mRNA expressing CSR CD2z mutants and cultured overnight. The next day, the cells were cocultured for 4-6 hours in the presence of various target cell lines. Positive target cell lines included K562 cells or Rat2 cells that were electroporated or lipofected, respectively, with mRNA encoding human CD58, while negative controls were either Rat2 cells that were not electroporated or CSR CD2z mutant expressing T cells alone.
(§1) FIG. 23C is a summary of staining and degranulation data. Data from surface-expression and binding studies, as well as those from degranulation experiments for each CSR CD2z mutant is summarized in the table.
FIG. 23D is a series of flow cytometry plots showing the expression of CD48, CD58 or CD59 on K562 and Rat2 cells. To confirm possible ligands for the CSR WT CD2z molecule, a panel of known and suspected ligands including human CD48, CD58, and CD59 were tested. Degranulation of engineered T cells was evaluated against the cell lines K562 and Rat2 that were made to overexpress the target ligands and confirmed for expression by FACS staining. Red histograms are unstained cells and blue histograms are cells that were electroporated/lipofected with mRNA and then stained for expression of the respective marker by FACS.
FIG. 23E is a bar graph showing that CSR CD2z recognizes human CD58, but not CD48 or CD59. To confirm possible ligands for the CSR WT CD2z molecule, a panel of known and suspected ligands including human CD48, CD58, and CD59 were tested. Degranulation of engineered T cells was evaluated against the cell lines K562 and Rat2 that were made to overexpress the target ligands and confirmed for expression by FACS staining. Cells were electroporated/lipofected with mRNA and then stained for expression of the respective marker by FACS. As a control, a BCMA CAR was included as well as a K562 cell line overexpressing BCMA. In addition, T cells transfected with GFP were also included as a control. T cell degranulation is a surrogate of T cell killing that can be measured by FACS staining for intracellular CD107a expression following coculture with target cell lines expressing target antigen. Pan T cells from normal blood donors were stimulated with anti-CD3/anti-CD28 beads in standard T cell culture media, then rested. These T cells were then electroporated with mRNA expressing CSR WT CD2z, BCMA CAR, or GFP and cultured overnight. The next day, the cells were cocultured for 4-6 hours in the presence of the various target cell lines that were electroporate/lipofected with mRNA encoding human CD48, CD58 or CD59, while negative controls were either K562 or Rat2 cells that were not electroporated/lipofected, or each of the electroporated T cells alone.

[2] = test system: anti-CD2 activator reagent, anti-CD2 monoclonal antibody (clone TS1/8), anti-CD2 polyclonal antibody reagent; assay: CSR CD2z mutant surface expression and staining with anti-CD2 antibody reagents in K562 cells; type: binding; conditions: 9 μg mRNA, next day
Procedure: FIG. 23A is a bar graph showing CSR CD2z mutant staining data. A panel of CSR CD2z mutants was designed, constructed, and tested for surface expression and binding to several anti-CD2 antibody reagents. To do so, each mutant was synthesized, subcloned into an in-house mRNA production vector, and then high-quality mRNA was produced for each. K562 cells were electroporated with 9 μg of mRNA, and surface-expression of each molecule was analyzed by flow cytometry the next day and data are shown as bar graphs. Each molecule was stained with anti-CD2 activator reagent, anti-CD2 monoclonal antibody (clone TS1/8), or anti-CD2 polyclonal antibody reagent (goat anti-human CD2).
as §1

[3] = test system: TCRb and b2M; assay: Gene editing (knockout of TCR and MHCI) of Allo CAR-T cells with CSR; type: cell-based, human; conditions: up to 14-day culture; CSR stable or transient
Text: Pan T cells isolated from healthy donor blood were genetically modified using the piggyBac® DNA modification system in combination with the Cas-CLOVER™ gene-editing system (CC) to produce allogeneic (Allo) CAR-T cells. […] Following EP, all cells were subsequently stimulated with a cocktail of agonist mAbs anti-CD2, anti-CD3 and anti-CD28, and were later selected for genetic modification over the course of up to a 14-day culture period using the selection gene. At the end of the initial culture period, all T cells expressed the CAR, indicating successful selection for genetically-modified cells (data not shown). All samples were performed in duplicate, and data is shown in bar graph where error bars represent standard deviation.

[4] = test system: Allo CAR-T cells; assay: Expansion of Allo CAR-T cells with WT or mutant (D111H) CSR CD2z; type: cell-based, human; conditions: up to 15-day culture; CSR stable or transient
Text: FIG. 24A is a bar graph showing that the delivery of CSR CD2z-D111H mutant enhances the expansion of Allo CAR-T cells. Pan T cells isolated from healthy donor blood were genetically modified using the piggyBac® DNA modification system in combination with the Cas-CLOVER™ gene-editing system (CC) for the production of allogeneic (Allo) CAR-T cells, or without CC gene-editing, as a control, for the production of autologous (Auto) CAR-T without a CSR (No CSR); auto CAR-T cells were produced by nucleofection of an mRNA encoding the super piggyBac™ transposase enzyme (SPB) and a transposon encoding a CAR, selection gene and a safety switch. […] Following EP, all cells were subsequently stimulated with a cocktail of agonist mAbs anti-CD2, anti-CD3 and anti-CD28, and were later selected for genetic modification over the course of up to a 15-day culture period using the selection gene. At the end of the initial culture period, all T cells expressed the CAR, indicating successful selection for genetically-modified cells (data not shown), and then all non-edited TCR-positive cells were depleted via negative selection to yield a population of Allo CAR-T cells that were >99% TCR-negative (data not shown).

B1: D111H: mutant CSR CD2z with D111H mutation within the CD2 extracellular domain (SEQ ID NO: 17118) (protein)
chain: MSFPCKFVASFLLIFNVSSKGAVSKEITNALETWGALGQDINLDIPSFQMSDDIDDIKWEKTSDKKKIAQFRKEKETFKEKDTYKLFKNGTLKIKHLKTDDQDIYKVSIYHTKGKNVLEKIFDLKIQERVSKPKISWTCINTTLTCEVMNGTDPELNLYQDGKHLKLSQRVITHKWTTSLSAKFKCTAGNKVSKESSVEPVSCPEKGLDIYLIIGICGGGSLLMVFVALLVFYITKRKKQRSRRNDEELETRAHRVATEERGRKPHQIPASTPQNPATSQHPPPPPGHRSQAPSHRPPPPGHRVQHQPQKRPPAPSGTQVHQQKGPPLPRPRVQPKPPHGAAENSLSPSSNRVKFSRSADAPAYKQGQNQLYNELNLGRREEYDVLDKRRGRDPEMGGKPRRKNPQEGLYNELQKDKMAEAYSEIGMKGERRRGKGHDGLYQGLSTATKDTYDALHMQALPPR
degranulation (CD107a) against CD58 [1]: Little reactivity; also recorded: completely abrogating anti-CD58 degranulation activity | surface expression and binding of anti-CD2 staining reagents [2]: strongly bound by all staining reagents | degree of gene editing compared to Allo CAR-T cells produced without a CSR [3]: a similar or greater degree of gene editing | peak expansion of Allo CAR-T cells compared to Allo CAR-T cells produced without a CSR [4]: a greater degree of expansion

B4: K67R/Q70K/Y110D/D111H: CSR CD2z mutant within the extracellular domain of CD2 (protein)
chain: KEITNALETWGALGQDINLDIPSFQMSDDIDDIKWEKTSDKKRIAKFRKEKETFKEKDTYKLFKNGTLKIKHLKTDDQDIYKVSIDHTKGKNVLEKIFDLKIQERVSKPKISWTCINTTLTCEVMNGTDPELNLYQDGKHLKLSQRVITHKWTTSLSAKFKCTAGNKVSKESSVEPVSCPEKGLDIYLIIGICGGGSLLMVFVALLVFYITKRKKQRSRRNDEELETRAHRVATEERGRKPHQIPASTPQNPATSQHPPPPPGHRSQAPSHRPPPPGHRVQHQPQKRPPAPSGTQVHQQKGPPLPRPRVQPKPPHGAAENSLSPSSNRVKFSRSADAPAYKQGQNQLYNELNLGRREEYDVLDKRRGRDPEMGGKPRRKNPQEGLYNELQKDKMAEAYSEIGMKGERRRGKGHDGLYQGLSTATKDTYDALHMQALPPR
degranulation (CD107a) against CD58 [1]: Little reactivity

Further lines, with some results ahead:

degranulation (CD107a) against CD58 [1]: Little reactivity
B2: Delta K106-120: CSR CD2z mutant of the panel (protein)
chain: KEITNALETWGALGQDINLDIPSFQMSDDIDDIKWEKTSDKKKIAQFRKEKETFKEKDTYKLFKNGTLKIKHLKTDDQDIYIFDLKIQERVSKPKISWTCINTTLTCEVMNGTDPELNLYQDGKHLKLSQRVITHKWTTSLSAKFKCTAGNKVSKESSVEPVSCPEKGLDIYLIIGICGGGSLLMVFVALLVFYITKRKKQRSRRNDEELETRAHRVATEERGRKPHQIPASTPQNPATSQHPPPPPGHRSQAPSHRPPPPGHRVQHQPQKRPPAPSGTQVHQQKGPPLPRPRVQPKPPHGAAENSLSPSSNRVKFSRSADAPAYKQGQNQLYNELNLGRREEYDVLDKRRGRDPEMGGKPRRKNPQEGLYNELQKDKMAEAYSEIGMKGERRRGKGHDGLYQGLSTATKDTYDALHMQALPPR

degranulation (CD107a) against CD58 [1]: Little reactivity
B3: K67R/Y110D: CSR CD2z mutant within the extracellular domain of CD2 (protein)
chain: B4 chain with K46Q, H87D
degranulation (CD107a) against CD58 ([1]; listed as K67R/Y1101D): do not mediate anti-CD58 degranulation activity | surface expression and binding of anti-CD2 staining reagents [2]: expressed on the surface and/or retain binding to the anti-CD2 activator reagent

Source: patent US20220389077A1, “ALLOGENEIC CELL COMPOSITIONS AND METHODS OF USE” (Poseida Therapeutics, Inc., priority 2018, published 2022)
